Measured values as given in patent US20180355045A1 (LIMITED LIABILITY COMPANY ONCOMAX LLC ONCOMAX, published 2018).

Columns and labels:
[1] = target: T1, fibroblast growth factor receptor 1 (FGFR1), preparation not stated (UniProt P11362 22-376, limits assumed); assay: method not stated; antibody from the CHO-OM8-21 cell line; antibody from the CHO-OM8-21 cell line
T1 construct: also called FGF receptor; FGFR1 receptor
T1 sequence (looked up): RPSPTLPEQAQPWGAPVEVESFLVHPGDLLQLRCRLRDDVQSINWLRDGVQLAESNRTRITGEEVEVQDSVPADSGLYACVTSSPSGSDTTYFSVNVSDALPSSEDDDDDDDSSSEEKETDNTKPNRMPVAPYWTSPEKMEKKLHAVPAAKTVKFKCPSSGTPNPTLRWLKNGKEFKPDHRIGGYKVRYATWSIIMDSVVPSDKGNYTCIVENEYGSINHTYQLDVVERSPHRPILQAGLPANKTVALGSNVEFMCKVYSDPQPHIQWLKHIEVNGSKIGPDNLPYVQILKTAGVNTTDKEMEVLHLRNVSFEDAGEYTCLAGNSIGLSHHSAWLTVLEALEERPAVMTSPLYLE

[2] = target: T2, recombinant FGFR1 antigen (on the SPR chip; PA-269#37 or Sino Biologicals #10616-H08H, not told which) (human, UniProt P11362-7 22-374); assay: SPR (BIAcore T100), FGFR1 on a CM5 chip, antibody in flow, 1:1 model
T2 sequence (looked up): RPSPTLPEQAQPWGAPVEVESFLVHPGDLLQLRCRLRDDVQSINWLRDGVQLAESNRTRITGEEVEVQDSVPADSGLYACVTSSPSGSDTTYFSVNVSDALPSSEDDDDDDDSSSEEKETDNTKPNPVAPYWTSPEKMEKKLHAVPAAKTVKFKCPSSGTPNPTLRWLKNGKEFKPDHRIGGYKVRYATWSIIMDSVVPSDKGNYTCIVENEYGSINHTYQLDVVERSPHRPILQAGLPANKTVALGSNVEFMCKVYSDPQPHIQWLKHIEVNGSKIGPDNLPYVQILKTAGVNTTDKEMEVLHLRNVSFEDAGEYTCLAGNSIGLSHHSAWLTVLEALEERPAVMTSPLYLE
Procedure: Analysis of surface plasmon resonance was performed using the BIAcore T100 System Operation Kit (BIAcore; GE Healthcare). […] Different antibody variants were diluted in HBS-P buffer (10 mmol/L HEPES, pH 7.4, 0.15 mol/L NaCl and 0.05% surfactant P20) and passed over the sensor chip surface (25 μl/min). The sensory surface was washed with HBS-P buffer, and then regenerated using 10 mmol/L glycine-HCl (pH 2). Different antibody concentrations were tested ([…]). Different cyclic kinetic properties were determined, and the results were analyzed using the 1:1 (Langmuir) binding model, inclusive of the association rate constant (Kₒₙ), dissociation rate constant (Koff) and dissociation constant (Kd) (Biacore, GE Healthcare).

Kd [1]: 9.27 nM | Kd [2]: 1.59 nM
B1: humanized anti-FGFR1 antibody OM-RCA-01 (VH3/VL5) (antibody, human IgG1, kappa, V domains shown)
VH: QVQLQESGPGLVKPSQTLSLTCTVSGYSITSDYAWSWIRQHPGKGLEWIGYITYSGTTYYNPSLKSRVTISVDTSKNQFSLKLSSVTAADTAVYYCARDGNYFDYWGQGTLVTVSS
VL: DIQLTQSPSFLSASVGDRVTITCRASSSVSSSYLHWYQQKPGKAPKLLIYRTSTLQSGVPSRFSGSGSGTEFTLTISSLQPEDFATYYCQQWSGYPLTFGGGTKVEIKR
notes: Human IgG1 (IGHG1*03) / kappa; also called VH3A/L5; OM1
